This data set concerns the target GST-Sam68(1-277) (UniProt Q60749 1-277). Briefly: EMSA. A general note: Mobility shift assays separate free from complexed probe on a gel.

The record followed here is publication PMC3130265.

GST-Sam68(1-277), sequence (Q60749 1-277): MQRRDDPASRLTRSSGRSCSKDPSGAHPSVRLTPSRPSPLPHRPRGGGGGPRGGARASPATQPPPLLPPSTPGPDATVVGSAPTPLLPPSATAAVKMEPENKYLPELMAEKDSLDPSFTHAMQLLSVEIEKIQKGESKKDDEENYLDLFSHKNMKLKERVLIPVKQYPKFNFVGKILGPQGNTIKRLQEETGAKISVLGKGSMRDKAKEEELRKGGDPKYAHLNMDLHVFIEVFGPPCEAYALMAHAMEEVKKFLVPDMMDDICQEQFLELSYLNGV

On to UAUUUAAUUCAUAAAUUUUGUUUUGUUUCUAGGGA (ssRNA) [Sgce WT probe (intron 7/exon 8 boundary)], for which the binding result is “binds”.
